This is an account of results in the supplement of paper PMC10598134.

The data set in a line: collision cross section of unmodified peptide (TIMS, N2, iRT-aligned); higher = larger / more extended gas-phase ion. On the procedure: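 Unmodified synthetic counterpart peptides (ProteomeTools / JPT), analysed by nanoLC-TIMS-QTOF (dda-PASEF). 1/K0 was aligned run-wise to spiked iRT peptides and converted to CCS in N2 (Mason-Schamp). Values are the mean of 1-3 technical replicates for the most abundant feature at each charge state. The same unmodified peptide is repeated across rows and is averaged.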

± gives the standard deviation.

GHYTIGK came in with a collision cross section (charge state: 2) of 315.37 ± 1.9 Å². Consider GADFLVTEVENGGSLGSKK, for which the collision cross section amounted to 494.06 ± 6.8 Å² (charge state: 2) and 535.68 ± 1.1 Å² (charge state: 3). In turn, FSPPSSSLQPGK showed a collision cross section (charge state: 2) of 371.43 ± 0.67 Å². Same read-out and setting: the same measure for VDATADYICK: 353.92 ± 0.79 Å². Regarding KITESVAETAQTIK, the collision cross section is 420.69 ± 0.66 Å² (charge state: 2) and 480.58 ± 0.22 Å² (charge state: 3).

GDYDLNAVR displayed a collision cross section (charge state: 2) of 340.54 ± 0.15 Å².

With FYTEDSPGLK, the collision cross section (charge state: 2) is reported as 352.82 ± 0.55 Å². As to AAYQAAIRGVGSAQSR, the collision cross section is, setting by setting: (charge state: 2) 436.77 ± 1.2 Å²; (charge state: 3) 509.17 ± 1.3 Å². The like results for GHPGPPGPPGEQGLPGLAGK were, in that order, 440.68 ± 1.2 Å² and 497.21 ± 14 Å². On to MTLSVLSR, for which the collision cross section (charge state: 2) is 327.34 ± 0.14 Å². Take VYPSSLSK: the collision cross section (charge state: 2) is given as 317.31 ± 0.73 Å². Still for that read-out and setting: for IPPTYQIR the value was 332.62 ± 0.59 Å².

As for ALASIDSKLNQAK, the collision cross section reads like this: (charge state: 2) 410.25 ± 2 Å²; (charge state: 3) 481.52 ± 3.4 Å². Take LGPNDQYK: the collision cross section (charge state: 2) is 325.88 ± 0.73 Å². As for LTEKELAEAASK, the collision cross section was 387.7 ± 1 Å² (charge state: 2) and 479.05 ± 4.3 Å² (charge state: 3). The like results for SLEEEGAAHSGKR were, in that order, 399.57 ± 1.8 Å² and 472.78 ± 3.7 Å². Regarding GYGVIFANGNR, under “charge state: 2”, the collision cross section amounted to 361.55 ± 0.6 Å².

On to LYAVHQEGNK, for which the collision cross section amounted to 357.2 ± 1.5 Å² (charge state: 2) and 449.31 ± 1.1 Å² (charge state: 3).

In the case of TEVLSPNSKVESK, the collision cross section (charge state: 2) is reported as 418.58 ± 2.2 Å² and the collision cross section (charge state: 3) was 483.46 ± 5.8 Å². With ELANFDPSRPGPPSGR, the collision cross section (charge state: 3) worked out at 494.4 ± 1 Å².

As for YVHADAPTNK, the collision cross section (charge state: 2) amounted to 347.85 ± 2.8 Å² and the collision cross section (charge state: 3) was determined as 415.08 ± 2 Å². The like results for LQLEIDQKK were, in that order, 366.48 ± 1.6 Å² and 427.93 ± 3.7 Å².

For GDAGEPGRPGSPGK, the collision cross section runs as follows: (charge state: 2) 357.76 ± 0.58 Å²; (charge state: 3) 449.7 ± 1.2 Å².

In the case of THLGEALAPLSK, the collision cross section is on record as 380.02 ± 0.67 Å² (charge state: 2) and 462.22 ± 1 Å² (charge state: 3). The like results for PGLKGEQGEPGAPGIR were, in that order, 410.66 ± 1.2 Å² and 510.99 ± 0.86 Å². As for SYSVGASGSSSR, under “charge state: 2”, the collision cross section was determined as 351.41 ± 0.48 Å². Turning to GETASKLQSEISR, the collision cross section is reported as 404.79 ± 2.8 Å² (charge state: 2) and 463.95 ± 4.6 Å² (charge state: 3). Substance SGGGYGGDRGGGYGGDR registered a collision cross section (charge state: 2) of 393.08 ± 1.3 Å² and a collision cross section (charge state: 3) of 460.09 ± 0.81 Å². Take TAIQAAGYPDK: the collision cross section (charge state: 2) is listed as 362.76 ± 1.1 Å². For VEPIHAVVLPRGK, the collision cross section is, setting by setting: (charge state: 2) 414.74 ± 1.1 Å²; (charge state: 3) 483.53 ± 1.8 Å². The substance GAPGPQGPPGPPGK came in with a collision cross section (charge state: 2) of 357.97 ± 0.58 Å². For the substance LYLPVQNK, the collision cross section (charge state: 2) was 336.72 ± 0.73 Å². PASGAGAGAGAGKR displayed a collision cross section (charge state: 2) of 378.29 ± 1.2 Å² and a collision cross section (charge state: 3) of 457.42 ± 4 Å². In turn, LGNTISSLFGGGTTPDAK returned a collision cross section (charge state: 2) of 447.17 ± 0.13 Å².

In turn, NLVTGDHIPTPQDLPQR yielded a collision cross section (charge state: 3) of 475.9 ± 0.23 Å². Take AIQLNPSYIR: for the setting “charge state: 2”, the collision cross section was determined as 373.91 ± 2.8 Å². Same read-out and setting: the same measure for GVQYLNEIK: 351.72 ± 0.74 Å². With TVTNAVVTVPAYFNDSQR, the collision cross section (charge state: 2) was determined as 471.11 ± 0.99 Å² and the collision cross section (charge state: 3) was 576.65 ± 1.1 Å². The like results for SFEDIHQYR were, in that order, 359.99 ± 0.48 Å² and 450.82 ± 1.1 Å². Consider DFSLTSSSQTPGATK, for which the collision cross section was found to be 412.17 ± 0.66 Å² (charge state: 2) and 461.25 ± 8.8 Å² (charge state: 3).

With GPPGPPGRPGNSGIR, the collision cross section (charge state: 3) stood at 436.52 ± 1.7 Å². Turning to LEEVTGKLQVAR, the collision cross section was determined as 400.35 ± 5.3 Å² (charge state: 2) and 475.59 ± 4.3 Å² (charge state: 3). Consider FSYTSQHSDYGQR, for which the collision cross section (charge state: 3) worked out at 485.4 ± 1 Å². As to IDLPAENSNSETIIITGKR, the collision cross section is, setting by setting: (charge state: 2) 488.02 Å²; (charge state: 3) 565.88 ± 0.52 Å².

In turn, STLEEPNLQPLQR yielded a collision cross section (charge state: 2) of 408.53 ± 0.66 Å². For ASAISIKLGSSK, the collision cross section by setting is: (charge state: 2) 373.11 ± 0.93 Å²; (charge state: 3) 446.31 ± 5.8 Å². In the case of ASTPGAAAQIQEVK, where the note is “charge state: 2”, the collision cross section was 395.93 ± 0.14 Å². As for LQAAYAGDKADDIQK, the collision cross section was 429.74 ± 2.5 Å² (charge state: 2) and 497.53 ± 4.8 Å² (charge state: 3). Turning to GERGFPGYPGPK, the collision cross section is, setting by setting: (charge state: 2) 366.2 ± 1.3 Å²; (charge state: 3) 460.83 ± 0.86 Å².

In the case of PGPRGQR, the collision cross section (charge state: 2) is 296.23 ± 0.53 Å². IVSGKDYNVTANSK: the collision cross section reads like this: (charge state: 2) 405.96 ± 2.6 Å²; (charge state: 3) 485.92 ± 5.8 Å². GDRGEIGPPGPR: the collision cross section runs as follows: (charge state: 2) 366.43 ± 0.3 Å²; (charge state: 3) 425.03 ± 1.2 Å². The substance GEPGLPGHPGK showed a collision cross section (charge state: 2) of 338.84 ± 0.58 Å². Turning to PSVGSQSNQAGQGKR, the collision cross section (charge state: 2) was found to be 422.59 ± 2.3 Å² and the collision cross section (charge state: 3) is listed as 465.3 ± 4.2 Å². VLSIGDGIAR registered a collision cross section (charge state: 2) of 348.04 ± 0.14 Å².

On to TTGFYSGFSEVAEKR, for which the collision cross section is, setting by setting: (charge state: 2) 454.17 ± 3.2 Å²; (charge state: 3) 530.82 ± 1.6 Å².

Regarding ITGKNQVTATK, the collision cross section was found to be 365.6 ± 0.91 Å² (charge state: 2) and 448.51 ± 5 Å² (charge state: 3). APIISGVTK: the collision cross section (charge state: 2) amounted to 322.45 ± 0.15 Å². The same measure, in the same setting: the same measure for AYILNLVK: 331.04 ± 1.1 Å²; for TATLATLATR: 333.86 ± 0.69 Å². On to IYHPNVDK, for which the collision cross section by setting is: (charge state: 2) 337.77 ± 0.73 Å²; (charge state: 3) 425.77 ± 2 Å².

In turn, GEKGNPGVGTQGPR showed a collision cross section (charge state: 2) of 370.3 ± 0.92 Å² and a collision cross section (charge state: 3) of 437.26 ± 1.3 Å². For the substance TLHLSHLNRFPAR, the collision cross section (charge state: 3) was 511.92 ± 1.2 Å². On to VNVEAPDVNLEGLGGKLK, for which the collision cross section (charge state: 2) is on record as 454.51 ± 2.9 Å² and the collision cross section (charge state: 3) stood at 537.97 ± 2.9 Å². For the setting “charge state: 2”, GSAPPGPVPEGSIR had a collision cross section of 377.29 ± 0.67 Å².

As for PPGFSPFR, under “charge state: 2”, the collision cross section is 328.84 ± 0.79 Å². Turning to GRGAPPPPPSR, the collision cross section by setting is: (charge state: 2) 341.09 ± 1.1 Å²; (charge state: 3) 436.88 ± 3.2 Å². The like results for IINEPTAAAIAYGLDKK were, in that order, 487.73 ± 3.8 Å² and 556.28 ± 2.3 Å². The like results for TGGTQTDLFTCGKCK were, in that order, 431.32 ± 1.2 Å² and 479.49 ± 5.3 Å². Turning to IPQEKCILQTDVK, the collision cross section (charge state: 2) is listed as 428.77 ± 2.5 Å² and the collision cross section (charge state: 3) is listed as 470.55 ± 3.7 Å².

With PGGLGSSSLYGLGASRPR, the collision cross section by setting is: (charge state: 2) 472.2 ± 0.073 Å²; (charge state: 3) 533.78 ± 0.86 Å².

On to IQTVPASHLQQGTASGSSK, for which the collision cross section (charge state: 3) worked out at 490.25 ± 12 Å². Take PGPKGEAGPTGPQGEPGVR: the collision cross section by setting is: (charge state: 2) 431.75 ± 0.38 Å²; (charge state: 3) 479.17 ± 5.1 Å². In the case of ANAIGRGAK, the collision cross section (charge state: 2) came to 319.32 ± 2.5 Å². Regarding RFSPPSSSLQPGK, the collision cross section runs as follows: (charge state: 2) 393.03 ± 0.67 Å²; (charge state: 3) 484.72 ± 0.22 Å². The like results for SDDESSQKDIK were, in that order, 372.47 ± 1.1 Å² and 449.63 ± 0.82 Å². For the setting “charge state: 2”, KVQFAPEK displayed a collision cross section of 329.36 ± 0.58 Å². Take SYISSQTNDTHK: the collision cross section by setting is: (charge state: 2) 399.56 ± 0.14 Å²; (charge state: 3) 459.19 ± 1.2 Å². The like results for LGHYATQLQK were, in that order, 363.47 ± 0.14 Å² and 429.28 ± 0.3 Å².

Turning to GRGTSQLAEGATAK, the collision cross section was found to be 389.78 ± 0.35 Å² (charge state: 2) and 463.88 ± 3.2 Å² (charge state: 3).

In the case of DFDTALKHYDK, the collision cross section is reported as 391.79 ± 0.64 Å² (charge state: 2) and 447.79 ± 3.3 Å² (charge state: 3).

For the substance SVSSSSYR, the collision cross section (charge state: 2) stood at 308.48 ± 0.73 Å². The same measure, in the same setting: the same measure for ESISVSSEQLAQFR: 416.66 ± 2.8 Å². Take GRGAAAAGGPQR: the collision cross section stood at 344.37 ± 5.2 Å² (charge state: 2) and 433.7 ± 4.8 Å² (charge state: 3). SISQSISGQK displayed a collision cross section (charge state: 2) of 337.94 ± 0.14 Å².

With DSSPTTNSKLSALQR, the collision cross section by setting is: (charge state: 2) 418.1 ± 2.2 Å²; (charge state: 3) 485.64 ± 4.2 Å². Turning to FHYQDQEFLK, the collision cross section is 406.29 ± 0.68 Å² (charge state: 2) and 457.95 ± 1.7 Å² (charge state: 3). For the substance IEDEQALGSQLQK, the collision cross section is, setting by setting: (charge state: 2) 401.79 ± 0.14 Å²; (charge state: 3) 493.77 ± 0.29 Å².
